Data published in article PMC6458997, “Deciphering the Molecular Mechanism Underpinning Phage Arbitrium Communication Systems” (Molecular Cell, 2019).
Entries after “also recorded” stand apart in the source; their conditions may differ.

Assays:
SPbeta AimR operator = details: pH 7.5
Procedure: AimR binding to its operator and the inhibition induced by the arbitrium peptides were analyzed by native polyacrylamide and agarose gel electrophoresis. […] Double strand DNA primer probes were purchased from Macrogen (Table S1 and Figure 3A). Purified PCR product or purchased probes (0.4μM) and AimR (4μM) protein were mixed in EMSA buffer (50 mM HEPES pH 7.5, 5 mM MgCl2, 75 mM NaCl and 0.5 mM EDTA). The samples were incubated for 10 min at room temperature. 8% polyacrylamide gels were electrophoresed in Tris-Borate-EDTA (TBE) buffer at 100V for one hour, followed by loading of the samples. Electrophoresis was then performed in TBE buffer at 4°C for about 150 min at 100V. Agarose gels (0.8%–1.2%) were run in TAE buffer at room temperature for about 100 min at 80V. Gels were stained with RedSafe (Intron Biotechnology).

[1] = SEC-MALS, oligomeric state of AimR proteins; type: physicochemical; details: 5 mg/mL, Superdex 200 HR 10/300, 25 mM Tris pH 8, 250 mM NaCl
Procedure: SEC-MALS experiments were performed using an AKTA pure system (GE Heralthcare) coupled to a Wyatt DAWN HELEOS-II MALS instrument and a Wyatt Optilab rEX differential refractometer (Wyatt). 50 μL of the protein samples were injected at a concentration of 5 mg/mL on a Superdex 200 HR 10/300 (GE Heralthcare) column equilibrated in 25 mM Tris pH 8, 250 mM NaCl. When the effect of the peptide in the oligomeric state was tested, 1 mM peptide was added to the injected sample and the running buffer was supplemented with peptide at a final concentration of 1 μM. The Astra 7.1.2 software from the manufacturer was used for acquisition and analysis of the data.

[2] = tested on: putative AimR operators found in SPbeta genome; assay: EMSA, AimR binding to other SPbeta operators with longer spacers; design: species or system Bacillus subtilis SPbeta phage; details: spacers of 27 and 28 bp
Source text: (§1) Gels were stained with RedSafe (Intron Biotechnology).

[3] = tested on: spacer-length-variant operators; assay: EMSA and titration, AimR binding to spacer-length-variant operators; design: species or system Bacillus subtilis SPbeta phage; details: apo AimR; spacers 12 to 35 bp; titration with 0.125 to 1 μg AimR
Source text: as §1

[4] = tested on: intergenic region between yopL and yopM; assay: Nuclease protection assay (footprinting); type: binding, Bacillus subtilis SPbeta phage; details: 0.3 μM AimR SPbeta, 10 min room temperature; DNase I 10^−4 mg/mL, 1 min at 37°C; capillary electrophoresis
[5] = Size-exclusion chromatography of AimR^ΔC-ter; type: physicochemical; details: stop codon at position 294
SPbeta AimR D360A = assay: Thermal shift assay, mutant AimR D360A; type: binding, Bacillus subtilis SPbeta phage; details: AimR^D360A versus WT AimR
Procedure: The thermal shift assay was conducted in a 7500 Fast Real time PCR System (Applied Biosystems). Samples of 20 μL containing 5 × Sypro Orange (Sigma-Aldrich) and 20 μM of protein in a 20 mM Tris pH 8 and 250 mM NaCl buffer were loaded in 96-well PCR plates. To calculate the apparent Kd peptide concentrations from 0 to 2 μM were added to the mixture. Samples were heated from 20 to 85°C in steps of one degree. Fluorescent intensity was plotted versus temperature and integrated with GraphPad Prism software using a Boltzmann model to calculate melting temperatures.

B1: SPbeta AimR: full-length AimR (residues 1-386) from the SPbeta phage, transcription factor and arbitrium receptor (protein)
chain: MELIRIAMKKDLENDNSLMNKWATVAGLKNPNPLYDFLNHDGKTFNEFSSIVNIVKSQYPDREYELMKDYCLNLDVKTKAARSALEYADANMFFEIEDVLIDSMISCSNMKSKEYGKVYKIHRELSNSVITEFEAVKRLGKLNIKTPEMNSFSRLLLLYHYLSTGNFSPMAQLIKQIDLSEISENMYIRNTYQTRVHVLMSNIKLNENSLEECREYSKKALESTNILRFQVFSYLTIGNSLLFSNYELAQENFLKGLSISVQNENYNMIFQQALCFLNNVWRKENKWINFESDSIMDLQEQAHCFINFNENSKAKEVLDKLDLLVHNDNELAMHYYLKGRLEQNKACFYSSIEYFKKSNDKFLIRLPLLELQKMGENQKLLELLLL
modifications: left off: His6, N-terminal, cleaved
notes: full-length AimR (residues 1-386) from the SPbeta phage, transcription factor and arbitrium receptor
SPbeta AimR operator
  binding to SPbeta operator or 359 bp fragment: binds to a 359 bp fragment
[1]
  oligomeric state in solution: dimeric organization
[2]
  binding to other SPbeta operators: AimR binding to other SPbeta operators with longer spacers
[3]
  affinity / capacity to bind spacer-length-variant operators: after eliminating 2 bp AimR dramatically loses its capacity to bind the operator; also recorded: can recognize operators in which the spacer has been increased even more than 6 bp
[4]
  length of sequence protected from DNase I degradation: 37 nt

B2: AimR^ΔC-ter: AimR mutant lacking the TPR^C-ter subdomain, stop codon at position 294 (protein)
chain: MELIRIAMKKDLENDNSLMNKWATVAGLKNPNPLYDFLNHDGKTFNEFSSIVNIVKSQYPDREYELMKDYCLNLDVKTKAARSALEYADANMFFEIEDVLIDSMISCSNMKSKEYGKVYKIHRELSNSVITEFEAVKRLGKLNIKTPEMNSFSRLLLLYHYLSTGNFSPMAQLIKQIDLSEISENMYIRNTYQTRVHVLMSNIKLNENSLEECREYSKKALESTNILRFQVFSYLTIGNSLLFSNYELAQENFLKGLSISVQNENYNMIFQQALCFLNNVWRKENKWINFESD
[5]
  oligomeric state in solution (size-exclusion chromatography): monomeric in solution

B3: AimR^D360A: SPbeta AimR residue D360 mutated to Ala (protein)
chain: MELIRIAMKKDLENDNSLMNKWATVAGLKNPNPLYDFLNHDGKTFNEFSSIVNIVKSQYPDREYELMKDYCLNLDVKTKAARSALEYADANMFFEIEDVLIDSMISCSNMKSKEYGKVYKIHRELSNSVITEFEAVKRLGKLNIKTPEMNSFSRLLLLYHYLSTGNFSPMAQLIKQIDLSEISENMYIRNTYQTRVHVLMSNIKLNENSLEECREYSKKALESTNILRFQVFSYLTIGNSLLFSNYELAQENFLKGLSISVQNENYNMIFQQALCFLNNVWRKENKWINFESDSIMDLQEQAHCFINFNENSKAKEVLDKLDLLVHNDNELAMHYYLKGRLEQNKACFYSSIEYFKKSNAKFLIRLPLLELQKMGENQKLLELLLL
SPbeta AimR D360A
  decrease in the melting temperature with respect to the WT AimR: 5.3 °C
[1]
  oligomeric state in solution: dimeric in solution

B4: AimR^N202A: SPbeta AimR residue N202 mutated to Ala (protein)
chain: MELIRIAMKKDLENDNSLMNKWATVAGLKNPNPLYDFLNHDGKTFNEFSSIVNIVKSQYPDREYELMKDYCLNLDVKTKAARSALEYADANMFFEIEDVLIDSMISCSNMKSKEYGKVYKIHRELSNSVITEFEAVKRLGKLNIKTPEMNSFSRLLLLYHYLSTGNFSPMAQLIKQIDLSEISENMYIRNTYQTRVHVLMSAIKLNENSLEECREYSKKALESTNILRFQVFSYLTIGNSLLFSNYELAQENFLKGLSISVQNENYNMIFQQALCFLNNVWRKENKWINFESDSIMDLQEQAHCFINFNENSKAKEVLDKLDLLVHNDNELAMHYYLKGRLEQNKACFYSSIEYFKKSNDKFLIRLPLLELQKMGENQKLLELLLL
SPbeta AimR operator
  binding to SPbeta operator or 359 bp fragment: able to bind DNA
[1]
  oligomeric state in solution: dimeric in solution
